Data published in article PMC12718106.

Assays:
[1] = target: natural Ara h 1 protein (peanut (Arachis hypogaea)); assay: native gel or EMSA; native-PAGE of the purified allergen, nondenaturing; oligomeric state from the estimated molecular mass (Fig. S1)
[2] = target: recombinant Ara h 1 protein with N-terminal His-tag (peanut (Arachis hypogaea)); assay: as above

stoichiometry N [1] | stoichiometry N [2] | Substance
3 | – | natural Ara h 1 protein (natural protein)
– | 3 | recombinant Ara h 1 protein with N-terminal His-tag (natural protein)
